{
  "source": "patent US8309523",
  "about": "(VIB VZW, dated 2012)",
  "binders": {"B1": {"name": "BCL10 (other, UniProt O95999 1-233, looked up)", "chain": "MEPTAPSLTEEDLTEVKKDALENLRVYLCEKIIAERHFDHLRAKKILSREDTEEISCRTSSRKRAGKLLDYLQENPKGLDTLVESIRREKTQNFLIQKITDEVLKLRNIKLEHLKGLKCSSCEPFPDGATNNLSRSNSDESNFSEKLRASTVMYHPEGESSTTPFFSTNSSLNLPVLEVGRTENTIFSSTTLPRPGDPGAPPLPPDLQLEEEGTCANSSEMFLPLRSRTVSRQ", "notes": "Co-precipitated from lysates of human cell lines"}},
  "key": {"MALT1-R149A (bio-tagged)": {"biological_target": "T1, MALT1-R149A (bio-tagged) (human, UniProt Q9UDY8 1-824, Avi-tag biotinylated in vivo by co-expressed BirA)", "T1 construct": "also called R149A mutant", "T1 sequence (looked up)": "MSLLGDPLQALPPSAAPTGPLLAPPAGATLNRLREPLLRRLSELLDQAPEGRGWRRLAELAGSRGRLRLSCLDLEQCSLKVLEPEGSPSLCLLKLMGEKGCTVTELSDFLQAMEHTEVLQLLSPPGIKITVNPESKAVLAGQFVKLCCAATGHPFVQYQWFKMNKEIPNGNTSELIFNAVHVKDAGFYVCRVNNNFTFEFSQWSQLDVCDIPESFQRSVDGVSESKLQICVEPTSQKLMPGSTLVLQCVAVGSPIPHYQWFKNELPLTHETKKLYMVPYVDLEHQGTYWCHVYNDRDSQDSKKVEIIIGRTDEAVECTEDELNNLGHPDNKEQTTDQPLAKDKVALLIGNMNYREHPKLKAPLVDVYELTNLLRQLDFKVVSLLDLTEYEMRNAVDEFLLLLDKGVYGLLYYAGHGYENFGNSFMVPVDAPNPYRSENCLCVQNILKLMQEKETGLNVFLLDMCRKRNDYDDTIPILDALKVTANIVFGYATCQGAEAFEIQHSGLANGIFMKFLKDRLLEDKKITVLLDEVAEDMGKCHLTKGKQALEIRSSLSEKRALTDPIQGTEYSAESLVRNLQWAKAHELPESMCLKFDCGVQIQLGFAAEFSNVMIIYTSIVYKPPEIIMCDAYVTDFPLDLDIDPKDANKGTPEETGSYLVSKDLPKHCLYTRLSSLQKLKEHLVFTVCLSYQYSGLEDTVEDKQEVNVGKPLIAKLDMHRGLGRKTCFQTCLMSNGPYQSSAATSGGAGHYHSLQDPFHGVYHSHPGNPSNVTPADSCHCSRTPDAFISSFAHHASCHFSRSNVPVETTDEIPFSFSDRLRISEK", "experiment": "co-IP (bio-IP, immunoblot)"}, "MALT1-C464A (bio-tagged)": {"biological_target": "T2, MALT1-C464A (bio-tagged) (human, UniProt Q9UDY8 1-824)", "T2 construct": "also called C464A mutant; C464 mutant", "T2 sequence (looked up)": "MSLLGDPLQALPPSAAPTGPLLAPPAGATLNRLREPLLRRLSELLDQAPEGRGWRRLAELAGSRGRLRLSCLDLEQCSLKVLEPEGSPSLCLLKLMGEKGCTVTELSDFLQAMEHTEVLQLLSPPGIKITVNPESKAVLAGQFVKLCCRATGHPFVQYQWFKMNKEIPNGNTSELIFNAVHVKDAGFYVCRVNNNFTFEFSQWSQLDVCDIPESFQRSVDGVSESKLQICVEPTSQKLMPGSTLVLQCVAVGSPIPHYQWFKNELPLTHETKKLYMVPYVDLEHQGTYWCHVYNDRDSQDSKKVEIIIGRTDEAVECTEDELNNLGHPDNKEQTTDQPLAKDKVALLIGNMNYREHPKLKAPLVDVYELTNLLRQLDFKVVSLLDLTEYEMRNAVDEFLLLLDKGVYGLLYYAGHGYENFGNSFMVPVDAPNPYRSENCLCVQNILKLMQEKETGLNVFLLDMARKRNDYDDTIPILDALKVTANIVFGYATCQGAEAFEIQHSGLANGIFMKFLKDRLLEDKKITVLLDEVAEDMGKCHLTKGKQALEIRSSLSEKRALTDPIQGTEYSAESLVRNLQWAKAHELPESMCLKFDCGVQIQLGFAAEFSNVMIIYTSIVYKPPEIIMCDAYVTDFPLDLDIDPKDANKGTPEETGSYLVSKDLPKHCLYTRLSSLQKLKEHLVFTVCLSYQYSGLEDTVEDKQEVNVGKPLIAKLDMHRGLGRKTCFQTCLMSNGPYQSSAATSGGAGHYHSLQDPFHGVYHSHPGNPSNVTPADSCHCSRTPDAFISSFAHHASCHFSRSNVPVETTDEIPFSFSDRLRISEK", "experiment": "co-IP (bio-IP, immunoblot)"}},
  "data": [
    {"binder": "B1", "values": [
      {"measurement": "binding result", "setting": "MALT1-R149A (bio-tagged)", "value": "binds"},
      {"measurement": "binding result", "setting": "MALT1-C464A (bio-tagged)", "value": "binds"}
    ]}
  ]
}
